According to the Human Domainome abundance scans (Beltran et al. 2025):
± gives the uncertainty stated by the source.

B1: POU domain, class 4, transcription factor 3, residues 185 to 256; numbered along this chain, Q15319 (parent)
chain: RELEAFAERFKQRRIKLGVTQADVGAALANLKIPGVGSLSQSTICRFESLTLSHNNMIALKPVLQAWLEEAE

Variants of: B1
Test: abundance fitness (aPCA) (normalised: wild type 0, dead -1); higher = more abundant; growth selection in yeast, the domain comes from the species named
Details: Homo sapiens

Going from T43N to T43L, the abundance fitness rises from -0.746 ± 0.21 to -0.012 ± 0.042.

T43W and P62E are within error of each other in abundance fitness: -0.382 ± 0.14 for the first, -0.23 ± 0.049 for the second.

Compared with P62A, P62L is lower in abundance fitness: -0.376 ± 0.043 for the first, -0.53 ± 0.028 for the second.

P62G and P62N are within error of each other in abundance fitness: -0.244 ± 0.036 for the first, -0.371 ± 0.094 for the second.

First: P62D
Second: P62W
The abundance fitness of the first is higher: -0.413 ± 0.081 for the first, -0.689 ± 0.047 for the second.

Going from E2D to E2P, the abundance fitness falls from 0.075 ± 0.03 to -0.345 ± 0.13.

E2K and R13N are within error of each other in abundance fitness: -0.121 ± 0.26 for the first, -0.119 ± 0.13 for the second.

R13V and R13M are within error of each other in abundance fitness: -0.018 ± 0.033 for the first, -0.094 ± 0.062 for the second.

Compared with R13Y, R13W is lower in abundance fitness: -0.133 ± 0.074 for the first, -0.297 ± 0.039 for the second.

R13K and R13E are within error of each other in abundance fitness: -0.019 ± 0.067 for the first, -0.075 ± 0.066 for the second.

Compared with R13H, R13L is lower in abundance fitness: 0.151 ± 0.13 for the first, -0.139 ± 0.037 for the second.

First: R13S
Second: R13F
The abundance fitness of the first is higher: 0.08 ± 0.049 for the first, -0.247 ± 0.055 for the second.

Going from F47M to F47P, the abundance fitness falls from -0.543 ± 0.09 to -1.02 ± 0.13.

F47V and F47A are within error of each other in abundance fitness: -0.718 ± 0.1 for the first, -0.866 ± 0.14 for the second.

F6Y and F6D are within error of each other in abundance fitness: -0.118 ± 0.26 for the first, -0.293 ± 0.28 for the second.

F6C and F6M are within error of each other in abundance fitness: -0.731 ± 0.25 for the first, -0.327 ± 0.25 for the second.

F6S and A29D are within error of each other in abundance fitness: -0.338 ± 0.3 for the first, -0.25 ± 0.12 for the second.

First: A29Y
Second: A29R
The abundance fitness of the first is lower: -0.305 ± 0.082 for the first, -0.114 ± 0.076 for the second.

A29E and A29F are within error of each other in abundance fitness: 0.006 ± 0.18 for the first, -0.086 ± 0.12 for the second.

A29N and A29W are within error of each other in abundance fitness: -0.053 ± 0.095 for the first, -0.181 ± 0.074 for the second.

Q65G and Q65K are within error of each other in abundance fitness: 0.011 ± 0.14 for the first, -0.011 ± 0.41 for the second.

Compared with Q65L, A59G is higher in abundance fitness: -0.486 ± 0.17 for the first, -0.085 ± 0.18 for the second.

Going from G35I to G35S, the abundance fitness rises from -0.569 ± 0.2 to -0.193 ± 0.057.

Going from G35H to L64D, the abundance fitness falls from -0.038 ± 0.071 to -0.737 ± 0.084.

L64N and L64R are within error of each other in abundance fitness: -0.758 ± 0.11 for the first, -0.818 ± 0.055 for the second.

I58T and I58E are within error of each other in abundance fitness: -0.044 ± 0.072 for the first, 0.071 ± 0.34 for the second.

I58D and I58Q are within error of each other in abundance fitness: 0.215 ± 0.45 for the first, -0.055 ± 0.072 for the second.

I58M and I58F are within error of each other in abundance fitness: 0.153 ± 0.12 for the first, 0.078 ± 0.14 for the second.

I58S and I58A are within error of each other in abundance fitness: -0.034 ± 0.055 for the first, -0.262 ± 0.32 for the second.

I58N and V63H are within error of each other in abundance fitness: -0.049 ± 0.05 for the first, 0.019 ± 0.14 for the second.

V63M and V63I are within error of each other in abundance fitness: -0.085 ± 0.093 for the first, 0.055 ± 0.051 for the second.

V63R and I33P are within error of each other in abundance fitness: -0.157 ± 0.049 for the first, -0.139 ± 0.13 for the second.

I33V and I33K are within error of each other in abundance fitness: -0.515 ± 0.32 for the first, -0.391 ± 0.11 for the second.

Q21K and Q21A are within error of each other in abundance fitness: -0.285 ± 0.13 for the first, -0.086 ± 0.12 for the second.

Q21N and Q21V are within error of each other in abundance fitness: 0.112 ± 0.18 for the first, -0.002 ± 0.11 for the second.

Q21S and Q21P are within error of each other in abundance fitness: -0.289 ± 0.074 for the first, -0.238 ± 0.38 for the second.

Compared with Q21G, Q21I is higher in abundance fitness: -0.429 ± 0.15 for the first, -0.035 ± 0.07 for the second.

Going from Q21F to A26S, the abundance fitness rises from -0.413 ± 0.11 to -0.012 ± 0.025.

A26I and N30Q are within error of each other in abundance fitness: -0.133 ± 0.068 for the first, -0.022 ± 0.099 for the second.

N30D and N30F are within error of each other in abundance fitness: -0.184 ± 0.5 for the first, -0.276 ± 0.1 for the second.

H54P and H54Y are within error of each other in abundance fitness: 0.102 ± 0.28 for the first, -0.027 ± 0.38 for the second.

A66L and A66E are within error of each other in abundance fitness: -0.048 ± 0.33 for the first, 0.053 ± 0.09 for the second.

A66R and A22G are within error of each other in abundance fitness: -0.133 ± 0.08 for the first, -0.055 ± 0.036 for the second.

A22M and A22W are within error of each other in abundance fitness: -0.179 ± 0.1 for the first, -0.329 ± 0.064 for the second.

A22D and A22Q are within error of each other in abundance fitness: -0.176 ± 0.14 for the first, -0.214 ± 0.12 for the second.

Going from A22V to A22P, the abundance fitness falls from -0.298 ± 0.05 to -0.469 ± 0.05.

K32E and K32S are within error of each other in abundance fitness: 0.034 ± 0.067 for the first, -0.031 ± 0.032 for the second.

K32N and K32M are within error of each other in abundance fitness: 0.004 ± 0.047 for the first, -0.048 ± 0.061 for the second.

Compared with K32Q, K32A is higher in abundance fitness: -0.175 ± 0.065 for the first, -0.056 ± 0.038 for the second.

K32P and K32D are within error of each other in abundance fitness: -0.158 ± 0.044 for the first, -0.076 ± 0.048 for the second.

K32H and T20K are within error of each other in abundance fitness: -0.113 ± 0.068 for the first, -0.183 ± 0.031 for the second.

First: T20Q
Second: T20D
The abundance fitness of the first is higher: -0.27 ± 0.028 for the first, -0.562 ± 0.19 for the second.

T20N and T20P are within error of each other in abundance fitness: -0.318 ± 0.089 for the first, -0.273 ± 0.026 for the second.

Going from N56W to N56F, the abundance fitness falls from 0.101 ± 0.21 to -0.628 ± 0.078.

N56K and N56T are within error of each other in abundance fitness: -0.109 ± 0.24 for the first, -0.588 ± 0.43 for the second.

N56Y and N56S are within error of each other in abundance fitness: -0.096 ± 0.28 for the first, 0.089 ± 0.13 for the second.

G37E and G37Y are within error of each other in abundance fitness: 0.038 ± 0.057 for the first, 0.024 ± 0.43 for the second.

First: G37W
Second: G37Q
The abundance fitness of the first is lower: -0.669 ± 0.26 for the first, 0.003 ± 0.057 for the second.

G37P and G37S are within error of each other in abundance fitness: -0.055 ± 0.083 for the first, -0.001 ± 0.082 for the second.

A5T and A5M are within error of each other in abundance fitness: -0.002 ± 0.23 for the first, 0.109 ± 0.099 for the second.

A5S and A5L are within error of each other in abundance fitness: -0.002 ± 0.19 for the first, 0.019 ± 0.065 for the second.

D23F and D23Y are within error of each other in abundance fitness: -0.208 ± 0.21 for the first, -0.411 ± 0.16 for the second.

D23T and D23K are within error of each other in abundance fitness: -0.307 ± 0.18 for the first, -0.121 ± 0.19 for the second.

R9G and R9Y are within error of each other in abundance fitness: -0.198 ± 0.13 for the first, -0.025 ± 0.091 for the second.

R9W and R9N are within error of each other in abundance fitness: -0.146 ± 0.1 for the first, -0.016 ± 0.1 for the second.

Compared with R9I, R9T is higher in abundance fitness: -0.192 ± 0.084 for the first, 0.016 ± 0.054 for the second.

R46K and R46G are within error of each other in abundance fitness: 0.055 ± 0.074 for the first, 0.125 ± 0.097 for the second.

Going from R46L to R46P, the abundance fitness falls from -0.184 ± 0.056 to -1.17 ± 0.14.

Compared with R46T, R46D is higher in abundance fitness: -0.661 ± 0.083 for the first, 0.096 ± 0.13 for the second.

S53E and S53P are within error of each other in abundance fitness: -0.065 ± 0.084 for the first, 0.042 ± 0.09 for the second.

First: S53H
Second: S53A
The abundance fitness of the first is lower: -0.174 ± 0.12 for the first, 0.025 ± 0.071 for the second.

V19Q and V19T are within error of each other in abundance fitness: -0.151 ± 0.055 for the first, -0.192 ± 0.039 for the second.

Going from V19N to E4I, the abundance fitness rises from -0.154 ± 0.077 to 0.113 ± 0.077.

E4Y and E4W are within error of each other in abundance fitness: -0.125 ± 0.07 for the first, -0.222 ± 0.043 for the second.

E4C and E4K are within error of each other in abundance fitness: -0.17 ± 0.061 for the first, -0.125 ± 0.11 for the second.

L31D and L31M are within error of each other in abundance fitness: 0 ± 0.49 for the first, -0.284 ± 0.18 for the second.

Compared with L31S, A7G is lower in abundance fitness: -0.094 ± 0.16 for the first, -0.646 ± 0.031 for the second.

A7R and A7M are within error of each other in abundance fitness: -0.695 ± 0.032 for the first, -0.784 ± 0.13 for the second.

First: A7V
Second: A7P
The abundance fitness of the first is higher: 0.039 ± 0.029 for the first, -0.579 ± 0.042 for the second.

Compared with A7T, A7Q is lower in abundance fitness: -0.235 ± 0.063 for the first, -0.689 ± 0.061 for the second.

Compared with A7Y, R1T is higher in abundance fitness: -0.725 ± 0.18 for the first, -0.133 ± 0.13 for the second.

R1F and R1M are within error of each other in abundance fitness: -0.142 ± 0.092 for the first, -0.08 ± 0.1 for the second.

R1K and R1S are within error of each other in abundance fitness: -0.226 ± 0.11 for the first, -0.109 ± 0.084 for the second.

Work on R1W yielded an abundance fitness of -0.164 ± 0.052.
